# The NTF2 design screens of Basanta et al. (2020)
# Assay: protease stability score; higher = more stable; yeast display proteolysis, trypsin and chymotrypsin;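 also: log10 excess protease needed over predicted unfolded state with 0 meaning unfolded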
row,Sequence,protease stability score
1,ERELVSIAQDILHALEHGDPQQFRDLVDPNAKFKVGDHEWHGRESAANEYAKEQRKMNNKYDRVTWDNNGDHIRARFNWVNHSNGEPKRKQATQELVLHNGRLVSMKQDDTQ,-0.052
2,DEEEQERAMEKLDHAIEKGDPDDAVELLDENADAVIGDKRYHGREAATTFMHELRKQIDHIHIRDMQIDNGRAHIEVDARHNGQERKINVVFVFHNGRATSMENRSE,1.02
3,DSERAKQWTHFLRLMETGNEEDLSKMADPNARFQVGDETYKGKDDVTKWARTVKTHMRVTYKRLNNDDEEGHARIEADYQYDHNGKPEEDKNSLVLSFHNGQIKEVVIHHVS,0.164
4,DEENLEIAKDLIRAQETGDEERIQNLLDPNVKIDVGDKSIHGREHLRKTQQEQKRNMRFDVDSVENKVHNGQVRVDAHVRERHNGQPTTKRYTLHMHFHNGKVERIRLQDKG,0.318
5,DDHAVSFVEEMLRIEKTGNHQQLENKADPNAEAEYGDKTYHGMEDFARELVRQLREWRLDYKSIDVQAHNGRAEVDVDVLVDIDGEPVRFRVTIVFQQHNGRLKNQSMRMSTDQLRKQQR,0.121
6,DEDDLRRAQKDLQQNDFHKIARDADENVRVRIGDTTYHGRETLISFLKEMQDRADHVSIKHISVEGDKITADFEMQVDGKTDTFDLFIVVHNGRYQHVHFEVRSEDFSKFMREIES,1.02
7,DEKTKAKQLADTLKRLAESGDFVRIAQLFDENARLNYGDKTVHGREQAEDQAKKIHDQIDHMELELKSVSVNENSVQISMEVVWHHNGNHHRFEVVVRIDVDENKNRARNADYQ,0.921
8,DEQTKAERFVQRVEEILKHGDEKKYAHLADKNVKVKYGDKEWHGREHWEKEVKKTRDKVDDIRIDYKELQVHNGKVDVRFQVRNNHNGKNESRDASYTLDDHNGRIRIQSMHVK,-0.009
9,DEEKIDRLLHEVVKAYLSGHSEKLKKLLKEDGQLHALSQTYHGKEQVMKVAEEFKRYGVELQIQDQKTEGDTLKVKAQAHKGGTTWEFEVKVKADGGKADELTIKVSEEAHKMIQRG,-0.298
10,DESVKERMKRILETGDWKKLVEMADEDASVKVGEKEFHGREQVSDFFKELQDQADTQEIKHVSVHGEHVVNTMVIRFNGKEVHLVLTVQLTNGKIHSASVKFTSEEHHKIMLRAIS,0.257
11,DNETVDEALKAFNKNDERNMMRLADENAEMEIGDTEYHGQEQVQTLLQKLNQQVDHREFHSIETEPNRIRVDYRAVFNGRDIRVHVHLEFENGRLTRVRFDVRDPRQQKHLQDLLK,0.344
12,DREDESELAMRAAVNAATGNEDEVSKNADPNVRAIYGDKNYDGTENMKDVIRQVRERIDHIELKSFEQHGDHAVARAEAKHNGDESTLVVTARAENGRVKSMRFEIR,-0.275
13,DDRQVEELVRIMQRGNFKDLASNLDENVHVKVGNRTYHGREKAETVFNRLQQRIDHYEIIHVQERPNRAQVRFRFRVNGRTVEATVKAQAHNGRIKEMNLQARDEDAQREIDHAID,1.24
14,DKEAVNIATRYMKAWEQGDSDTLMKLMDEDVRVHYGDKVLEGREDVSRDLKRLLDHAQFEIKHVTNKDNGSVVIVNFHMIVNVNGEPVEVKVVVHFHMHNGRIKQIVIRIDPKQLRQIKG,1.41
15,DEEDVRRVAKQAKEYVQKGNKEKLMDLGKEGVDYRVLDHKAKGPEAIKTMQDYLERKGARVEVKKLEVKGDQVRTEVHYKQGDTTATAEVHATVKGGKIDKVKVDLSDRAKEILKHG,-0.141
16,DEEQVKKVVKVLMEYFKRGDVDQIVRMIDEDVEFKLLDEKKKGQEQVKTVIKKLHDQGAEVHVDHAEVEGDKATVDTRWHIGDHTMEATVEYYVEGDRVKKVKVQWSEEAKKALHAG,1.06
17,DDKKRVTQVFREWREALQTGNEEELHKQADKDVKFDVGESEFHGREKFVKHVQERLTQVDHLDIKMHSLKVDNGKADVSVIYRQNHNGKEDETTAVIIMTLSNGHAKIDTVKYG,-0.195
18,DEDQATEVAELVKSNDWENLRRNIDPNARMHIGDRTLHGREEIAEVFRRIVEQADHQRLHHLEVEGDTIVIRMTVNINGKEVDFRMKIQFHNGKIKEVRVDFTDPKERKVFDKAAR,1.28
19,DEHNVRLAERLLHAIDTNDPKRVKEQVDKDVEYEVGDKRVHGRDDYIKQVETEIRQMSIHIQSMDIHSNGDKVNVRVTYTFTVDGRPQEDTVDYEVQFDNGKVRTVRNRFSEEQEERQKK,-0.245
20,DEDVKRVMEELVKVMHNNDPNEFMKLLDPNARWTIGDKTYHGRDNLRREVKKHHDQQRVQYKSWHIDVHGERATATAEVRVDHNGQPDTFRLVISAQAHNGRVKRAEYRKDT,-0.145
21,DDERVQEQAKDFLKVVKEGNEEDLTKLFDPNASARYGDKTYHGREKVATAVAELAKKVDHFRVEHVEASGNKLHIDAYFQVNGNRRRIRFFIEIRNGKINTVIITSG,1.62
22,DEENLRVVVHLMKAVETGDPTKARRNLDKDVHFNVGNRRIHGREQFQKELDDEKKDISINVKDYRVRDKNGKAHFTVRFVLEVNGRPMEMKITMQAEAHNGRIKHVQQQVSEEDEKRINK,-0.094
23,DESEMQKAVEDIVKMLETGNETKFQENAPPDVRVDVGDKRFTGREDLRKWVHDVKERVDRIRVTHYSAHGEDVVIDVVYRHNGTNERANIVVHIHNGRMVQMKVQQS,0.944
24,DEKEQKENAKKMADAIERGDPDKLSELMDENAKVTVGDKTIHGRRQAHEWLKEFRDQADHVEIKEFTVNGNRVIIHVKVRHNGSESERVMTVSWHNGKVKSASFRSN,0.63
25,DDDNARELVKRIMKAWQTGDEKELNKNMDPNVRIEVGDKTWHGREDVSKMARELRKQVDSIEVKDVEVQGNHANADVVQVVNGEQKHYLVIIDFHNGKARRLKIEER,2.11

row,Sequence,protease stability score
1,DQSELRDFVEEFLEIFRHGNEDDARRLVDKDATAKVGDKTYNGEEQVLDFLKQLRNRADHVQIDTFRVEGDKMEAHMRLNVNGKTVQVVIQAEVRNGRIKHFRMDPNDLRKLEK,0.657
2,DEEQAKSMVHNMRQNNFEELDKLVDENVRVTVGNKKLHGREEYQKWLENWKKQADRITWDSIDVHGEKIDVEFRAVVNGRTVKQKVDIQFHNGRIKTARYQVTNEELDKIMKEMVE,0.866
3,DNKDQARRLLNELRKAMKQNDEDRMRQLMDPNARATYGDKTVHGREELAERIIKEVKRADHVDLQVDDIKTQGNKLTVEVTIRIDVNGKTINTRYVLYAEVSNGRFNIRQIHQQ,0.544
4,DEDANDVVRKYIEAVNTGDPDQVNELVDPNVRVEVGDKTLSGHEEIRKEQQERTKQSRVEIEVKQMKVHGDNIILYAVVRYNHNGKPSSRHVKMTFSAHNGHFKHIRVHDDQ,0.809
5,DEEEAQKFRKHAKSNDQDNMRRMMDEDVRVIVGDFEVQGREDAEENLLRLNQRVDHISVKSIDVQGEHVTVDVEMTIDGTKFVVVYVVQFHNGRIKQLDLRARDEKDEKAFRRAVG,0.234
6,DHTKIARRLMEDLTDARRHNDPHHVKNLLDKDVKIRVGDKSVDGEEEATKQMIERQRRADHIEMRIKSVSTHNGQLRIIFDVREVHNGQEHTDREEVQFDNENGKVRMVNVQQK,-0.056
7,DEEVREVVKKMLEALKTGNSEQVRRNIDPNARLHVGEFDYHGQTQISEAVKRLSNEIKINYKDMKMRLHNGRVDVKVHQQNNSNGKPEEKTWRATIVAKNGRIKEIDQRDDK,-0.481
8,DEEVLQEYREAFEEGDEERIQNLADENVKVTYGDKDYHGRHDMRKFMKWLKRAADRIEIKRYTQTGDKLRIVVVMHVNGQTIKFSVVVRVHNGNVKSVRMDATSEEDRKHFERVVD,0.755
9,DDEAVRAAKRAFEAWIENDPEKMKHQVDENAHLHYGDKEVHGREDANRQVHEDERQMRIELRSVTFQHHNGRAKIDMKYVLDHNGKPETRKFDATAEARNGKITKMSIDVHQ,-0.077
10,DEEHAEELMKRWMEVVKKGDKDTVKELYKPNGTWRNVDEEHQGVEQVQKMMKKIQDVGVEFQVRKAKVEGDRVTVVYDVRAGDVEVTFTVQMDVDGGRVELVQVKVDEDAKKAVKTG,0.034
11,DRQVVRDAQTIFRLEKHGNENDVRRMADPNVDVNIGDKEIRGREEFAKSMRRKRDEIRVSLEIKNWTTTGDKANIDAKMQEEHNGRPSEKRVHIIVTATNGRMKSAHYHNTK,-0.006
12,DEDHNRRVAKRFIEAVLSGDPEQAKRNADKHVKLQVGDKEYRGRDDLKTWIEQVSTRADHNQIHSMSVSGNRMNVDVKFNHNGRRERTVIRVEVENGKVKKVEVHSG,0.975
13,DETDLERWARTFIEVFQTGDENRFRKMVDPNARLNVGEKNVHGKEEMAKAAKKLRDKVDHMHVRDLQINPPTIEIHIDFHHNGQKRSQVYYVEMHNGRVTEIHVQTS,1.05
14,DKEILDLVNEFLKAQRDNDPDRVSELADPNVKVHYGDKQIRGREEVNKQVEKEQKEIQVDFRIKHVTVENGRADLNFRYHANVNGQPISFDARIEMQFHNGRLKRLVLRMPEEAVKTMDS,0.118
15,EEKIVDILERMVTALHTGDPDTVHENLDPNAHVVIGDKEFTGMDTMHRTLERQKKEIRIQINSYSVHAQGNKADIDIDMVNEHNGHPDRNRYRVDAKVHNGKIKQVRYEEVS,-0.38
16,DHHARTQAEHLLEALRNGNEDQLMKLIDPNARFRYGDKEVHGSEQFREQVHTLKREIRMDVKEYRFTVEGNRLVVKVTAILDTNGKPDTRDVDNHAIVHNGKIKQFTVDNKS,-0.134
17,DDKDMEQIKRLIEQLLTGDPDSAKRNFDENARVTIGDKTIEGRDDMRRWVDTVHKHAQLEITHMTVKVHGDKVKVNMDARRTHNGRPERATFKMDVELQNGKVKNQSIEIRK,0.223
18,DDQHHAERFVEHVLKQLQTGNENDISKMVDENARVEYGDEEITGRESVVKHLIKEARRVDSIDLKVKSVSKEGDKINVTLVAVLDVNGRKDKRQFRVVMAKQGDKTNIISQHEK,0.965
19,DKDAARRFNEMLQQIHTGNEQEVSKLVDEDADVKVGEKDVHGREQIHSEVKKMRDELSYRVQVNEFDDRGDKIRFNIRVRKNTNGKPKTSRNNLTVVVHNGRIKEVKAESDG,0.095
20,EDRERAKELVKRLTDAFRTNNPDDYVRQAPPDVTMQVGDKQYHGRSKVKEWIKQILDRVDHLKIELVDVKRSGEKLRFKAEYHYEHNGKTDRNTMEMVFTIQGDKMKIDDATQQ,0.134
21,DPKKLKEAVEKVIQAMEKGNVEEVVKLYKPDVKFVLGDQEFRGREDVKKQAKKFYTKGARFQLRKVEVKGDKVEVVVDVEVGGTRKTFKFTLKVEDDTVDEYEIRFTEEAKKAKEKG,0.839
22,DEDDLERKDEEFQRLMKTGNFEELAQQADKDVRVQIGDKQLHGRRQIKKYQEEMQRKADHFDVKRVDIQGDTVDAVIENRHNGHHQVVRIQVNMHNGTIKEVTIHSS,-0.02
23,DKHQMHILKSIVENEQKGDEKSVSKMVDPNARFHVGDKRISGREQKDEDVQRKKDEIRVQIDKVEFNHSNGRVVVNMDMTIDRNGKPKTFKAQAHATFHNGTATSQTQTNDG,-0.614
24,DERDQKHLAELIAKALETGDFKLAQKNVDENVRVKVGDETLHGKDNMQKWAEENHRRVDHLQLNDIKIHNGRVVINMRAVVNGKDFRLDIKIQFDNGKIHVVSIDPRVERHIKS,0.733
25,DRELNQLFRDYVHALKTGDEDELRKQADPNVRIEIGDKEWHGMEKIATEQKKRHDEIRVQIDVKEVSVHNGRVEAELEVVDQQNGRPEKRKVTVTAEYENGKLQHQRYQSDG,-0.442
